Source: patent US20090130676A1 (GENERAL HOSPITAL, published 2009)

B1: pep2 (designed binder, not shown: small tags and cut ends)
chain: MSDKIIHLTDDSFDTDVLKADGAILVDFWAEWCGPLVCKSYRLDWEAGALFRSLFGPCKMIAPILDEIADEYQGKLTVAKLNIDQNPGTAPKYGIRGIPTLLLFKNGEVAATKVGALSKGQLKEFLDANLA
modifications: Peptide loop sits in the TrxA active-site loop; flanking Cys33 and Cys36 may form a disulfide
notes: the purified His6 form is m40
B2: pep9 (FIG. 4B numbering), thioredoxin prey fusion (designed binder, not shown: large carriers)
chain: MSDKIIHLTDDSFDTDVLKADGAILVDFWAEWCGPQQRFVFSPSWFTCAGTSDFWGPEPLFDWTRDGPCKMIAPILDEIADEYQGKLTVAKLNIDQNPGTAPKYGIRGIPTLLLFKNGEVAATKVGALSKGQLKEFLDANLA
B3: pep13 (FIG. 4B numbering), thioredoxin prey fusion (designed binder, not shown: large carriers)
chain: MSDKIIHLTDDSFDTDVLKADGAILVDFWAEWCGPPVCCMMYGHRTAPHSVFNVDGPCKMIAPILDEIADEYQGKLTVAKLNIDQNPGTAPKYGIRGIPTLLLFKNGEVAATKVGALSKGQLKEFLDANLA
B4: pep10 (designed binder, not shown: small tags and cut ends)
chain: MSDKIIHLTDDSFDTDVLKADGAILVDFWAEWCGPQVWSLWALGWRWLRRYGWNMGPCKMIAPILDEIADEYQGKLTVAKLNIDQNPGTAPKYGIRGIPTLLLFKNGEVAATKVGALSKGQLKEFLDANLA
modifications: Peptide loop sits in the TrxA active-site loop; flanking Cys33 and Cys36 may form a disulfide
notes: The purified His6 form is m44
B5: pep8 (designed binder, not shown: large carriers; small tags and cut ends)
chain: MSDKIIHLTDDSFDTDVLKADGAILVDFWAEWCGPYSFVHHGFFNFRVSWREMLAGPCKMIAPILDEIADEYQGKLTVAKLNIDQNPGTAPKYGIRGIPTLLLFKNGEVAATKVGALSKGQLKEFLDANLA
modifications: peptide loop embedded in the thioredoxin active-site loop between Cys33 and Cys36 (may form a disulfide)
notes: The purified His6 form is m43
B6: pep12 (FIG. 4B numbering), thioredoxin prey fusion (designed binder, not shown: large carriers)
chain: MSDKIIHLTDDSFDTDVLKADGAILVDFWAEWCGPRPLTGRWVVWGRRHEECGLTGPCKMIAPILDEIADEYQGKLTVAKLNIDQNPGTAPKYGIRGIPTLLLFKNGEVAATKVGALSKGQLKEFLDANLA
B7: pep7 (FIG. 4B numbering), thioredoxin prey fusion (designed binder, not shown: large carriers)
chain: MSDKIIHLTDDSFDTDVLKADGAILVDFWAEWCGPQLYAGCYLGVVIASSLSIRVGPCKMIAPILDEIADEYQGKLTVAKLNIDQNPGTAPKYGIRGIPTLLLFKNGEVAATKVGALSKGQLKEFLDANLA
B8: pep14 (FIG. 4B numbering), thioredoxin prey fusion (designed binder, not shown: large carriers)
chain: MSDKIIHLTDDSFDTDVLKADGAILVDFWAEWCGPWSPELLRAMVAFRWLLERRPGPCKMIAPILDEIADEYQGKLTVAKLNIDQNPGTAPKYGIRGIPTLLLFKNGEVAATKVGALSKGQLKEFLDANLA
B9: pep11 (designed binder, not shown: small tags and cut ends)
chain: MSDKIIHLTDDSFDTDVLKADGAILVDFWAEWCGPWRRMELDAEIRWVKPISPLEGPCKMIAPILDEIADEYQGKLTVAKLNIDQNPGTAPKYGIRGIPTLLLFKNGEVAATKVGALSKGQLKEFLDANLA
modifications: Peptide loop sits in the TrxA active-site loop; flanking Cys33 and Cys36 may form a disulfide
notes: The purified His6 form is m45
B10: Cdk7 (enzyme, not shown: small tags and cut ends)
chain: ALDVKSRAKRYEKLDFLGEGQFATVYKARDKNTNQIVAIKKIKLGHRSEAKDGINRTALREIKLLQELSHPNIIGLLDAFGHKSNISLVFDFMETDLEVIIKDNSLVLTPSHIKAYMLMTLQGLEYLHQHWILHRDLKPNNLLLDENGVLKLADFGLAKSFGSPNRAYTHQVVTRWYRAPELLFGARMYGVGVDMWAVGCILAELLLRVPFLPGDSDLDQLTRIFETLGTPTEEQWPDMCSLPDYVTFKSFPGIPLHHIFSAAGDDLLDLIQGLFLFNPCARITATQALKMKYFSNRPGPTPGCQLPRPNCPVETLKEQSNPALAIKRKRTEALEQGGLPKKLIF
notes: Bait strain named only on the sheet
B11: pep6 (FIG. 4B numbering), thioredoxin prey fusion (designed binder, not shown: large carriers)
chain: MSDKIIHLTDDSFDTDVLKADGAILVDFWAEWCGPRVKLGYSFWAQSLLRCISVGGPCKMIAPILDEIADEYQGKLTVAKLNIDQNPGTAPKYGIRGIPTLLLFKNGEVAATKVGALSKGQLKEFLDANLA
B12: peptide 13 (FIG. 3A/3B numbering), thioredoxin prey fusion (designed binder, not shown: large carriers; small tags and cut ends)
chain: MSDKIIHLTDDSFDTDVLKADGAILVDFWAEWCGPSVRMRYGIDAFFDLGGLLHGGPCKMIAPILDEIADEYQGKLTVAKLNIDQNPGTAPKYGIRGIPTLLLFKNGEVAATKVGALSKGQLKEFLDANLA
modifications: peptide loop embedded in the thioredoxin active-site loop between Cys33 and Cys36 (may form a disulfide)
B13: pep5 (designed binder, not shown: large carriers; small tags and cut ends)
chain: B12 chain
modifications: peptide loop embedded in the thioredoxin active-site loop between Cys33 and Cys36 (may form a disulfide)
notes: the purified His6 form is m42

How the values were obtained:
LexA-Cdk3 bait = target: T1, LexA-Cdk3 bait (human, UniProt Q00526 1-305, limits assumed); experiment: yeast interaction trap mating assay, lacZ reporter on Xgal
T1 construct: also called human Cdk3; not shown: bacterial LexA protein
T1 sequence (Q00526 whole entry): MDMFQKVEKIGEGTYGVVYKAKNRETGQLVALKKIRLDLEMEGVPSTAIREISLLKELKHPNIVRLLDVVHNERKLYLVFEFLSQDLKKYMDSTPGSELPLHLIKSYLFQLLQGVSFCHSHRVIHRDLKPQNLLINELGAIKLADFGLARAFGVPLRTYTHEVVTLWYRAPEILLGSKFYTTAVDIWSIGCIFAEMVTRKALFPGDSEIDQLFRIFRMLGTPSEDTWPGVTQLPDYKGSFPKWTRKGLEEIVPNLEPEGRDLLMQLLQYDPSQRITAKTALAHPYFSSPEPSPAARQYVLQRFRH

Cdc2 = target: T2, Cdc2 (Homo sapiens (Human), UniProt P06493 1-297); experiment: as above
T2 construct: bait construct and species not described
T2 sequence (P06493 whole entry): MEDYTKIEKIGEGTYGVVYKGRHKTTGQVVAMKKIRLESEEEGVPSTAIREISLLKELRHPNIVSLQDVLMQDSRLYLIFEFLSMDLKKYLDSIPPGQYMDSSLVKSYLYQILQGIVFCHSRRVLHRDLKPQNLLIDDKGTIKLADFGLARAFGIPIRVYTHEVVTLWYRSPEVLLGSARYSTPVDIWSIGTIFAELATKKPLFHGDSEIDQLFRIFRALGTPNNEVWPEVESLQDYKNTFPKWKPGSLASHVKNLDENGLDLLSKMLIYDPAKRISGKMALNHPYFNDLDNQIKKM

Drosophila Cdc2c = target: T3, Drosophila Cdc2c (Drosophila, UniProt P23573 1-314, limits assumed); experiment: as above
T3 construct: bait construct not described
T3 sequence (P23573 whole entry): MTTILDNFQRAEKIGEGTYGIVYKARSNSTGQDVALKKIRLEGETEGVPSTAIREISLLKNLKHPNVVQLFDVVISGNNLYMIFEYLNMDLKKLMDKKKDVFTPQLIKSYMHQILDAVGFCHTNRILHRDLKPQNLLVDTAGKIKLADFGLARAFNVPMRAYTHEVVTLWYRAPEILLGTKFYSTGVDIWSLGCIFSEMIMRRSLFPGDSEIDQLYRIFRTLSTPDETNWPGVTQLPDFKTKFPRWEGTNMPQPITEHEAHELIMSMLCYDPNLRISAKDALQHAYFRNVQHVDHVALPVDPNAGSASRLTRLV

CDC28 = target: T4, CDC28 (Saccharomyces cerevisiae (strain ATCC …, UniProt P00546 1-298)); experiment: as above
T4 construct: bait construct not described
T4 sequence (P00546 whole entry): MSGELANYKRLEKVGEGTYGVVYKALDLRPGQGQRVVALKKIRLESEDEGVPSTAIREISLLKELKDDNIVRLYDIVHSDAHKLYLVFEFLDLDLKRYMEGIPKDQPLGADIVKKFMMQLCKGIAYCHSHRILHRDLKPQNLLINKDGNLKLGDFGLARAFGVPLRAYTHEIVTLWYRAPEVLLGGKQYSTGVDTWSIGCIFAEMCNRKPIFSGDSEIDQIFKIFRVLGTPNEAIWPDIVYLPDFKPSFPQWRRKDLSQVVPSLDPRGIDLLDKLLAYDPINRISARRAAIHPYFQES

Cdk6 = target: T5, Cdk6; experiment: as above
T5 construct: Bait strain named only on the sheet

Cdk7 = target: B10; experiment: as above
Cdk4 [1] = target: T6, Cdk4 (Homo sapiens (Human), UniProt P11802 2-303); experiment: as above
T6 construct: construct not described
T6 sequence (P11802 2-303 limits assumed): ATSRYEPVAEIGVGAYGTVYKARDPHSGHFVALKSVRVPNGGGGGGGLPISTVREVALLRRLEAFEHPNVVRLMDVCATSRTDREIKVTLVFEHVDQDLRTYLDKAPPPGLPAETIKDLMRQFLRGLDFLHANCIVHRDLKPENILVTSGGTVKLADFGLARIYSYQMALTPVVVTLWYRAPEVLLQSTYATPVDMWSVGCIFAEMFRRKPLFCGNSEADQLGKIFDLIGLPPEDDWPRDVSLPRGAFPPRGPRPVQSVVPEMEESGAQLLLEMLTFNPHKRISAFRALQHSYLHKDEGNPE

Cdk4 [2] = target: T6, Cdk4; experiment: yeast interaction trap mating assay (FIG. 4A)
[3] = target: B8; experiment: yeast interaction trap mating assay, lacZ reporter on Xgal
[4] = target: B6; experiment: as above
[5] = target: B2; experiment: as above
[6] = target: B11; experiment: as above
[7] = target: B7; experiment: as above
[8] = target: B3; experiment: as above
[9] = target: human Cdk2 expressed from a plasmid in cdc28ts yeast (human, UniProt P24941 1-298); experiment: cell-based or functional assay

Binder | binding result (LexA-Cdk3 bait) | binding result (Cdc2) | binding result (Drosophila Cdc2c) | binding result (CDC28) | binding result (Cdk6) | binding result (Cdk7) | binding result (Cdk4 [1]) | binding result (Cdk4 [2]) | binding result [3] | binding result [4] | binding result [5] | binding result [6] | binding result [7] | binding result [8] | fold decrease in plating efficiency of a Cdk2-dependent cdc28-1N yeast strain at the restrictive temperature [9]
B1 | no binding | no binding | no binding | no binding | no binding | no binding | no binding | – | – | – | – | – | – | – | –
B2 | no binding | no binding | no binding | no binding | – | – | – | no binding | – | – | – | – | – | – | –
B3 | no binding | no binding | no binding | no binding | – | – | – | no binding | – | – | – | – | – | – | –
B4 | no binding | no binding | no binding | no binding | no binding | no binding | no binding | – | – | – | – | – | – | – | –
B5 | no binding | no binding | no binding | no binding | no binding | no binding | no binding | – | – | – | – | – | – | – | –
B6 | no binding | no binding | no binding | no binding | – | – | – | no binding | – | – | – | – | – | – | –
B7 | no binding | no binding | no binding | no binding | – | – | – | no binding | – | – | – | – | – | – | –
B8 | no binding | no binding | no binding | no binding | – | – | – | no binding | – | – | – | – | – | – | –
B9 | no binding | no binding | no binding | no binding | no binding | no binding | no binding | – | – | – | – | – | – | – | –
B10 | – | – | – | – | – | – | – | – | no binding | no binding | no binding | no binding | no binding | no binding | –
B11 | no binding | no binding | no binding | no binding | – | – | – | no binding | – | – | – | – | – | – | –
B12 | – | – | – | – | – | – | – | – | – | – | – | – | – | – | 10 fold
B13 | binds | no binding | no binding | no binding | no binding | no binding | no binding | – | – | – | – | – | – | – | –
